Drawing on PMC11184549 (ACS Infectious Diseases, 2024), this text covers Kd for one molecule.

In the test the target is human IMPα1 lacking the IMPβ-binding domain (IMPαΔIBB) (human, UniProt P52292 70-529). In words: fluorescence polarisation.

No end group written: not given here. *: point of attachment. FITC = O=C1OC2(c3ccc(O)cc3Oc3cc(O)ccc32)c2ccc(NC(=S)*)cc21; Ahx = NCCCCCC(=O)O

B1: FITC-labeled DENV1 NS5 NLS_(Central) peptide (peptide)
chain: {FITC-Ahx}-LWGFLSRNKKPRICTREEF
One may read the Kd as the free concentration of one partner at which half of the binding sites on the other are occupied at equilibrium, for simple one-to-one binding. High values mean lower affinity, low ones higher affinity. B1: the Kd was more than 700 nM.
